Measured values: US20140329752A1 (published 2014)
Ends that are not written are not given here.

B1: modified calcitonin gene-related peptide antagonist of SEQ ID NO: 1 (peptide)
peptide: H-ACDTAACVLGRLSQELHRLQTYPRTNVGSKAF-NH2
modifications: not fully specified (bridges); printed as NH2-Ala-Cys-Asp-Thr-Ala-Ala-Cys-Val-Leu-Gly-Arg-Leu-Ser-Gln-Glu-Leu-His-Arg-Leu-Gln-Thr-Tyr-Pro-Arg-Thr-Asn-Val-Gly-Ser-Lys-Ala-Phe-NH2; cysteine pairing not given here
B2: modified calcitonin gene-related peptide antagonist of SEQ ID NO: 6 (peptide)
peptide: H-ACRFGACVLGRLSQELHRLQTYPRTNVGSKAF-NH2
modifications: not fully specified (bridges); printed as NH2-Ala-Cys-Arg-Phe-Gly-Ala-Cys-Val-Leu-Gly-Arg-Leu-Ser-Gln-Glu-Leu-His-Arg-Leu-Gln-Thr-Tyr-Pro-Arg-Thr-Asn-Val-Gly-Ser-Lys-Ala-Phe-NH2; cysteine pairing not given here
B3: modified calcitonin gene-related peptide antagonist of SEQ ID NO: 7 (peptide)
peptide: H-ACNLSACVLGRLSQELHRLQTYPRTNVGSKAF-NH2
modifications: not fully specified (bridges); printed as NH2-Ala-Cys-Asn-Leu-Ser-Ala-Cys-Val-Leu-Gly-Arg-Leu-Ser-Gln-Glu-Leu-His-Arg-Leu-Gln-Thr-Tyr-Pro-Arg-Thr-Asn-Val-Gly-Ser-Lys-Ala-Phe-NH2; cysteine pairing not given here
B4: modified calcitonin gene-related peptide antagonist of SEQ ID NO: 8 (peptide)
peptide: H-CSNTAACVLGRLSQELHRLQTYPRTNVGSKAF-NH2
modifications: not fully specified (bridges); printed as NH2-Cys-Ser-Asn-Thr-Ala-Ala-Cys-Val-Leu-Gly-Arg-Leu-Ser-Gln-Glu-Leu-His-Arg-Leu-Gln-Thr-Tyr-Pro-Arg-Thr-Asn-Val-Gly-Ser-Lys-Ala-Phe-NH2; cysteine pairing not given here
B5: modified calcitonin gene-related peptide antagonist of SEQ ID NO: 9 (peptide)
peptide: H-ACDTALCVLGRLSQELHRLQTYPRTNVGSKAF-NH2
modifications: not fully specified (bridges); printed as NH2-Ala-Cys-Asp-Thr-Ala-Leu-Cys-Val-Leu-Gly-Arg-Leu-Ser-Gln-Glu-Leu-His-Arg-Leu-Gln-Thr-Tyr-Pro-Arg-Thr-Asn-Val-Gly-Ser-Lys-Ala-Phe-NH2; cysteine pairing not given here
B6: modified calcitonin gene-related peptide antagonist of SEQ ID NO: 10 (peptide)
peptide: H-ACDTAICVLGRLSQELHRLQTYPRTNVGSKAF-NH2
modifications: not fully specified (bridges); printed as NH2-Ala-Cys-Asp-Thr-Ala-Ile-Cys-Val-Leu-Gly-Arg-Leu-Ser-Gln-Glu-Leu-His-Arg-Leu-Gln-Thr-Tyr-Pro-Arg-Thr-Asn-Val-Gly-Ser-Lys-Ala-Phe-NH2; cysteine pairing not given here
B7: modified calcitonin gene-related peptide antagonist of SEQ ID NO: 11 (peptide)
peptide: H-ACNLSVCVLGRLSQELHRLQTYPRTNVGSKAF-NH2
modifications: not fully specified (bridges); printed as NH2-Ala-Cys-Asn-Leu-Ser-Val-Cys-Val-Leu-Gly-Arg-Leu-Ser-Gln-Glu-Leu-His-Arg-Leu-Gln-Thr-Tyr-Pro-Arg-Thr-Asn-Val-Gly-Ser-Lys-Ala-Phe-NH2; cysteine pairing not given here
B8: modified calcitonin gene-related peptide antagonist of SEQ ID NO: 12 (peptide)
peptide: H-CSNTAVCVLGRLSQELHRLQTYPRTNVGSKAF-NH2
modifications: not fully specified (bridges); printed as NH2-Cys-Ser-Asn-Thr-Ala-Val-Cys-Val-Leu-Gly-Arg-Leu-Ser-Gln-Glu-Leu-His-Arg-Leu-Gln-Thr-Tyr-Pro-Arg-Thr-Asn-Val-Gly-Ser-Lys-Ala-Phe-NH2; cysteine pairing not given here
B9: modified calcitonin gene-related peptide antagonist of SEQ ID NO: 13 (peptide)
peptide: H-ACNLSACVLGRLSQELHRLQTYPTNTGSGTP-NH2
modifications: not fully specified (bridges); printed as NH2-Ala-Cys-Asn-Leu-Ser-Ala-Cys-Val-Leu-Gly-Arg-Leu-Ser-Gln-Glu-Leu-His-Arg-Leu-Gln-Thr-Tyr-Pro-Thr-Asn-Thr-Gly-Ser-Gly-Thr-Pro-NH2; cysteine pairing not given here
B10: modified calcitonin gene-related peptide antagonist of SEQ ID NO: 14 (peptide)
peptide: ACVLGACVLGRLSQELHRLQTYPVDPSSPHSY-NH2
modifications: not fully specified (bridges); printed as Ala-Cys-Val-Leu-Gly-Ala-Cys-Val-Leu-Gly-Arg-Leu-Ser-Gln-Glu-Leu-His-Arg-Leu-Gln-Thr-Tyr-Pro-Val-Asp-Pro-Ser-Ser-Pro-His-Ser-Tyr-NH2; cysteine pairing not given here
B11: modified calcitonin gene-related peptide antagonist of SEQ ID NO: 15 (peptide)
peptide: ACDTAACVTHRLAGLLSRSGGVVKNNFVPTNVGSKAF-NH2
modifications: not fully specified (bridges); printed as Ala-Cys-Asp-Thr-Ala-Ala-Cys-Val-Thr-His-Arg-Leu-Ala-Gly-Leu-Leu-Ser-Arg-Ser-Gly-Gly-Val-Val-Lys-Asn-Asn-Phe-Val-Pro-Thr-Asn-Val-Gly-Ser-Lys-Ala-Phe-NH2; cysteine pairing not given here
B12: modified calcitonin gene-related peptide antagonist of SEQ ID NO: 2 (peptide)
peptide: H-ACDTASCVLGRLSQELHRLQTYPRTNVGSKAF-NH2
modifications: not fully specified (bridges); printed as NH2-Ala-Cys-Asp-Thr-Ala-Ser-Cys-Val-Leu-Gly-Arg-Leu-Ser-Gln-Glu-Leu-His-Arg-Leu-Gln-Thr-Tyr-Pro-Arg-Thr-Asn-Val-Gly-Ser-Lys-Ala-Phe-NH2; cysteine pairing not given here
B13: modified calcitonin gene-related peptide antagonist of SEQ ID NO: 3 (peptide)
peptide: H-ACDTAVCVLGRLSQELHRLQTYPRTNVGSKAF-NH2
modifications: not fully specified (bridges); printed as NH2-Ala-Cys-Asp-Thr-Ala-Val-Cys-Val-Leu-Gly-Arg-Leu-Ser-Gln-Glu-Leu-His-Arg-Leu-Gln-Thr-Tyr-Pro-Arg-Thr-Asn-Val-Gly-Ser-Lys-Ala-Phe-NH2; cysteine pairing not given here
B14: modified calcitonin gene-related peptide antagonist of SEQ ID NO: 4 (peptide)
peptide: H-ACNTAACVLGRLSQELHRLQTYPRTNVGSKAF-NH2
modifications: not fully specified (bridges); printed as NH2-Ala-Cys-Asn-Thr-Ala-Ala-Cys-Val-Leu-Gly-Arg-Leu-Ser-Gln-Glu-Leu-His-Arg-Leu-Gln-Thr-Tyr-Pro-Arg-Thr-Asn-Val-Gly-Ser-Lys-Ala-Phe-NH2; cysteine pairing not given here
B15: modified calcitonin gene-related peptide antagonist of SEQ ID NO: 5 (peptide)
peptide: H-ACVLGACVLGRLSQELHRLQTYPRTNVGSKAF-NH2
modifications: not fully specified (bridges); printed as NH2-Ala-Cys-Val-Leu-Gly-Ala-Cys-Val-Leu-Gly-Arg-Leu-Ser-Gln-Glu-Leu-His-Arg-Leu-Gln-Thr-Tyr-Pro-Arg-Thr-Asn-Val-Gly-Ser-Lys-Ala-Phe-NH2; cysteine pairing not given here
B16: AC187 (peptide)
peptide: VLGKLSQELHKLQTYPRTNTGSNTY
modifications: not fully specified

These binders were tested against T1, amylin receptor AMY1, a CT (calcitonin) receptor/RAMP1 (receptor-activity modifying protein) complex (UniProt P30988 25-474; O60894 27-148, limits assumed) (assay: cell-based or functional assay).
T1 sequence (P30988 25-474 limits assumed, chain 1 of 2): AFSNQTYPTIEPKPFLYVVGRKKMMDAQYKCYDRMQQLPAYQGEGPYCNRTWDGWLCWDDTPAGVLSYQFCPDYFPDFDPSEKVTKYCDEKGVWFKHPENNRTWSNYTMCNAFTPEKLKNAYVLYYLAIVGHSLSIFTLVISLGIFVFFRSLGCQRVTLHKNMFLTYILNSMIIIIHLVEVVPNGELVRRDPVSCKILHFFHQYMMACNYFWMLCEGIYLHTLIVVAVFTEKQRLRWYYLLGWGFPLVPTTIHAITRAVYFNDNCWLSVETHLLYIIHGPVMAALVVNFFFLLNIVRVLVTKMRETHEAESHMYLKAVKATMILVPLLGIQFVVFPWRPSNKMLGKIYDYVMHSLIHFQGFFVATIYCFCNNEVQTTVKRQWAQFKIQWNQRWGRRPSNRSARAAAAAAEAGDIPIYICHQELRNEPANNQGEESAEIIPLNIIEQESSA
T1 sequence (O60894 27-148 limits assumed, chain 2 of 2): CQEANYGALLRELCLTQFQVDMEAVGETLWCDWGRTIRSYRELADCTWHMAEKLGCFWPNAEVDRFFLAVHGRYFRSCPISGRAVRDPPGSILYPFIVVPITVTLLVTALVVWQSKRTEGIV
B1 was tested, and the “IC50 nM (calcium flux, inhibition of stimulation by 32 nM α-CGRP)” value was 17 nM. In the case of B2, the “IC50 nM (calcium flux, inhibition of stimulation by 32 nM α-CGRP)” value is reported as 33 nM. In the case of B3, the “IC50 nM (calcium flux, inhibition of stimulation by 32 nM α-CGRP)” value is reported as 8 nM. For B4, the “IC50 nM (calcium flux, inhibition of stimulation by 32 nM α-CGRP)” value was 16 nM. With B5 the “IC50 nM (calcium flux, inhibition of stimulation by 32 nM α-CGRP)” value was 9 nM. For B6, the “IC50 nM (calcium flux, inhibition of stimulation by 32 nM α-CGRP)” value was 9 nM. For B7, the “IC50 nM (calcium flux, inhibition of stimulation by 32 nM α-CGRP)” value was 9 nM. With B8 the “IC50 nM (calcium flux, inhibition of stimulation by 32 nM α-CGRP)” value was 9 nM. For B9, the “IC50 nM (calcium flux, inhibition of stimulation by 32 nM α-CGRP)” value was 4 nM. With B10 the “IC50 nM (calcium flux, inhibition of stimulation by 32 nM α-CGRP)” value was 1020 nM. For B11, the “IC50 nM (calcium flux, inhibition of stimulation by 32 nM α-CGRP)” value was 1240 nM. B12 was tested, and the “IC50 nM (calcium flux, inhibition of stimulation by 32 nM α-CGRP)” value was 5 nM. B13 was tested, and the “IC50 nM (calcium flux, inhibition of stimulation by 32 nM α-CGRP)” value was 4 nM. B14 was tested, and the “IC50 nM (calcium flux, inhibition of stimulation by 32 nM α-CGRP)” value was 12 nM. B15 was tested, and the “IC50 nM (calcium flux, inhibition of stimulation by 32 nM α-CGRP)” value was 75 nM.

Biological target: T1, amylin receptor AMY1, a CT (calcitonin) …
Assay: cell-based or functional assay
Remark: another data set of the same source
In the case of B16, the “IC50 nM (calcium flux, assay positive control)” value is reported as 8150 nM.
